Values joined by “and” are separate entries in the source; they are usually repeats but may differ in a detail not shown here. Equal entries are not always repeated.
How the values were obtained:
[1] = molecular target: T1, human complement C2 in normal human serum (human, UniProt P06681 21-752); assay: cell-based or functional assay
T1 sequence: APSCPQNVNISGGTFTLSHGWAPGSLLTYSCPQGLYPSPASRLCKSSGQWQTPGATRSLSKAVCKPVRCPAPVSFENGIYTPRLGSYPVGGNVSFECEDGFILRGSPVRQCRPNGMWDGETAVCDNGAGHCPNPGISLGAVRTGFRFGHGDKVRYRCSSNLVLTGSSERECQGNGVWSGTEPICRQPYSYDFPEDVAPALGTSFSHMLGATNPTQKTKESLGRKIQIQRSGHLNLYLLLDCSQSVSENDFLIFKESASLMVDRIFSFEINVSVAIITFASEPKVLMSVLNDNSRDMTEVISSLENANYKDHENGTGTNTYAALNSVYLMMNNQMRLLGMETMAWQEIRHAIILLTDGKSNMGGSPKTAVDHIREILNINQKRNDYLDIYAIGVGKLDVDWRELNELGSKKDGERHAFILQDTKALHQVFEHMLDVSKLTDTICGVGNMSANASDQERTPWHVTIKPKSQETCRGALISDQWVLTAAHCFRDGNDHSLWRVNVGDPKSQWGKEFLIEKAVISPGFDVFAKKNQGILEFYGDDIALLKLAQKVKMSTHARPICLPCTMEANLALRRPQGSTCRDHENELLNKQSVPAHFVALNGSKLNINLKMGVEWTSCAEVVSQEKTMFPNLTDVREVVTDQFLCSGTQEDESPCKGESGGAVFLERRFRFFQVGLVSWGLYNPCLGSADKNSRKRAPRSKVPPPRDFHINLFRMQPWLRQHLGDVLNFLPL

[2] = molecular target: T2, recombinant cynomolgus (cyno) complement C2 (XP_005553508.1), C-terminal 6His-tag, made in house (CHO cell … (cynomolgus monkey (Macaca fascicularis), UniProt P06681 21-752 (human entry))); assay: ELISA
T2 construct: also called cyno C2; Cyno C2
T2 chain: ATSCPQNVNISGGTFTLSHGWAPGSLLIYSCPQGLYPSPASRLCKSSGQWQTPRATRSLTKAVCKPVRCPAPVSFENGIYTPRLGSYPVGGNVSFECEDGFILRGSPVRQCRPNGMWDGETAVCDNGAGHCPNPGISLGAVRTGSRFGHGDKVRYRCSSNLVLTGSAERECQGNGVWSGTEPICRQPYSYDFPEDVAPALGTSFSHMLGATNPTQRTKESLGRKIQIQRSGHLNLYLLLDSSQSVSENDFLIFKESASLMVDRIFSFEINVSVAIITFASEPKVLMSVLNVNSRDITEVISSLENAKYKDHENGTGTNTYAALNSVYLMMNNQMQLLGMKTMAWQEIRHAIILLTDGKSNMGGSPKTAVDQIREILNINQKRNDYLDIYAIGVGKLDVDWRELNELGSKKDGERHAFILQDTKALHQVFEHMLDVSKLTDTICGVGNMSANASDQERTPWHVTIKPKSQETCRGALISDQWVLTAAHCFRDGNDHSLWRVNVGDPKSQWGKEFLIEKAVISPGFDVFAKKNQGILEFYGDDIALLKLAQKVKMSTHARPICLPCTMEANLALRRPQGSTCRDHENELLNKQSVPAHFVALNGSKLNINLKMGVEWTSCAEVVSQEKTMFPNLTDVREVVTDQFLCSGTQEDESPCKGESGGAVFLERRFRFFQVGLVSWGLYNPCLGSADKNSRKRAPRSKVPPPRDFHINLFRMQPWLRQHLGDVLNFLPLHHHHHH

[3] = molecular target: T3, recombinant human complement C2 (NP_000054.2), C-terminal 6His-tag, made in house (CHO cell expression) (human, UniProt P06681 21-752); assay: ELISA
T3 construct: a linker before the tag is not described; also called human C2; Human C2
T3 sequence: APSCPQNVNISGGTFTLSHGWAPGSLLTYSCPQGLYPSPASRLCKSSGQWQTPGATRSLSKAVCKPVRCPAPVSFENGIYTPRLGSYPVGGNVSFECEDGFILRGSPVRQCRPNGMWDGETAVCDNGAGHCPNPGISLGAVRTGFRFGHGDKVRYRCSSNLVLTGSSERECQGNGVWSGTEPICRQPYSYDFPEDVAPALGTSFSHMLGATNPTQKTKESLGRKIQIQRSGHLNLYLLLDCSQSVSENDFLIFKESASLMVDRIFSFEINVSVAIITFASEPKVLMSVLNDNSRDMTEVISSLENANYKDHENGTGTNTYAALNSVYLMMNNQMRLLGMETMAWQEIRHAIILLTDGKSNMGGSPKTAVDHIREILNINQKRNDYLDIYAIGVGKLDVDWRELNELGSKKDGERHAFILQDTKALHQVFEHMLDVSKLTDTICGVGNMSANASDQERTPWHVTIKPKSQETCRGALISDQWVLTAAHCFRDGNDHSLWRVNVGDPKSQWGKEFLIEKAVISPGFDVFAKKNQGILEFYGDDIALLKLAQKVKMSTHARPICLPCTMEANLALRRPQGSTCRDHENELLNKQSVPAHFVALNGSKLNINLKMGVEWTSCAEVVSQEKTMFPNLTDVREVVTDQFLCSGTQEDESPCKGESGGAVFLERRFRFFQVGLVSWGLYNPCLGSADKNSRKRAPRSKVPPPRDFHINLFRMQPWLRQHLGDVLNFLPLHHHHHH

[4] = molecular target: T2, recombinant cynomolgus (cyno) …; assay: BLI (Gator), antibody on probe; 600 s association at pH 7.4, 600 s dissociation at pH 5.8
Method: (§1) The histidine mutant constructs in Table 4 were tested for their pH-dependent dissociation from human C2. Probe-immobilized anti-C2 antibodies were incubated with C2 at pH 7.4 for 600s, followed by a 600s dissociation period in K Buffer at pH 7.4 or pH 5.8. The data were processed and analyzed by the Gator evaluation software.
(§2) Non-fusion mAb were used for comparison.

[5] = molecular target: T3, recombinant human complement C2 …; assay: as above
Method: as §1, §2

[6] = molecular target: T3, recombinant human complement C2 …; assay: binding kinetics, neutral pH (BLI presumed)

Binder	IC50, inhibition of sheep RBC lysis, 5% serum [1] [nM]	EC50 [2] [nM]	EC50 [3] [nM]	Dissociation (%) pH 5.8 [4] [%]	Dissociation (%) pH 5.8 [5] [%]	Kd [6]	koff [6]	kon [6]
anti-C2 antibody 3.2 (antibody, IgG4, V domains shown, Recombinant; also called WT; "WT" 3.2) VH: EVQLLESGGGLVQPGGSLRLSCAASGFTFRHYAMSWVRQAPGKGLEWVSLISGSGASTFYADSVKGRFTISRDNSENMLYLQMNSLRAEDTAVYYCAKDSLAVAGSEYFQHWGQGTLVTVSS VL: SYVLTQAPSVSVAPGQTARITCGGNYFGGKSVHWYQQRPGQAPVLVVYDDSDRPSGIPERFSGSKSGNTATLAISRVEAGDEAAYYCQVYDTSSDHWVFGGGTKLTVL	2.9	0.0478	0.0504	14.5	10.4	0.198 nM and 0.0984 nM	6.12e-05 s⁻¹ and 3.73e-05 s⁻¹	308000 M⁻¹ s⁻¹ and 379000 M⁻¹ s⁻¹
anti-C2 antibody 69.44 (antibody, IgG4, V domains shown, Recombinant) VH: QVQLVQSGAEVKKPGASVKVSCKASGYSFTTYYMYWVRQAPGQGLEWMGIITPSGGSTTYAQKFQDRVTMTRDASTTTVYMELSSLRSEDTAVYYCARGYEGSYGFDHWGQGTLVTVSS VL: SYELTQPPSVSLSPGQTASITCSGDKLGNKYTCWYQQKPGQSPVLVIYQDNKRPSGIPERFSGSNSGNTATLTISGTQAMDEADYYCQTWDSSTAVFGGGTKLTVL	2.8	0.0794	0.0474	7.22	2.45	0.296 nM	5.85e-05 s⁻¹	197000 M⁻¹ s⁻¹

From patent US20250376539A1 (KIRA PHARMACEUTICALS SUZHOU, published 2025)
